Laboratory results from patent US20230234992A1.

Molecular target: S Stabilizing Construct #21, CoV2_S2_1_pross mutant Spike (S) protein (SARS-CoV-2) (UniProt P0DTC2)

Substance: CR3022 antibody (RBD Specific Antibody)
- fold affinity decrease: 17 fold
